The numbers were not newly measured in publication PMC7302117, which cites them from elsewhere.

This data set has as its target ELK1 (Homo sapiens) (UniProt P19419).
Sequence of UniProt P19419 (P19419 whole entry): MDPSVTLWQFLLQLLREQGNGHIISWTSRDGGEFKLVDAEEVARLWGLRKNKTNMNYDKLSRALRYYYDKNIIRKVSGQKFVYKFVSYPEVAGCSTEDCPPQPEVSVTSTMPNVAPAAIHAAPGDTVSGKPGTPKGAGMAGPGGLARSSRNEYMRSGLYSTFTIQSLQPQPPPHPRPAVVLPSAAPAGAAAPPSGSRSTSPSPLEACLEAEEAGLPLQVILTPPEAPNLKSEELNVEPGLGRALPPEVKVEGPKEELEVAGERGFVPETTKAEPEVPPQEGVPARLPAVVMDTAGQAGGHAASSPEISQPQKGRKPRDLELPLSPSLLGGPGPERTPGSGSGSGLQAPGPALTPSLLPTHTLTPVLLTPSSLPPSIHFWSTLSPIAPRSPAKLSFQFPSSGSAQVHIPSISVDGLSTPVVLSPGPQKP

As for “Androgen receptor A/B domain (from UniProt P10275)”, the Kd (as a rule, the equilibrium constant for the complex coming apart) was 20 nM.
